The target of this assay is Kuenenia stuttgartiensis hydrazine dehydrogenase (Kuenenia stuttgartiensis) (UniProt Q1PW30). Briefly: crystal structure.

The text below walks through data of publication PMC6469936.

Chain of UniProt Q1PW30 (Q1PW30 33-582): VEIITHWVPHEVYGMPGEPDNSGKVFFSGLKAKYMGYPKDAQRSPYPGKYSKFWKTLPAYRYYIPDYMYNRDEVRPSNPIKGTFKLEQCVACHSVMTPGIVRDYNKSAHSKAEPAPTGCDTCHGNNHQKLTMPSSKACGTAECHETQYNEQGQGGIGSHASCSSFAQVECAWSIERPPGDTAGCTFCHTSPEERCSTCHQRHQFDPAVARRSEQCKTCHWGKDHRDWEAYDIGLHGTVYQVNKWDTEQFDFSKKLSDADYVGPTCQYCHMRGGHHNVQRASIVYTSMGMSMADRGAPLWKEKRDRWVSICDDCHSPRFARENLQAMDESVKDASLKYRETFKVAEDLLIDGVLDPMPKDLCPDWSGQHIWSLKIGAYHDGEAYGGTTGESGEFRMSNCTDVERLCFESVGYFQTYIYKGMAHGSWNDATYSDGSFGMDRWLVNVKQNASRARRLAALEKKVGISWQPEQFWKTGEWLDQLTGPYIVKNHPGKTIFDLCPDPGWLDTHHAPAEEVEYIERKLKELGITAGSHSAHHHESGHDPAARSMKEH

Turning to “Kustc1130, endogenous, co-purified with K. stuttgartiensis HDH (from UniProt Q1PW30 33-582) (natural protein)”, the stoichiometry N (copies per assembly of 24 HDH monomers) is 12.
